Biological target: Cas7 of the type I-F Cas8-HNH system from Selenomonas sp. isolate RGIG9219 (Selenomonas sp. isolate RGIG9219)
Assay: cryo-EM structure; Cas8-HNH Cascade-crRNA ribonucleoprotein complex in the target-free state, 3.6 Å; subunits co-expressed in E. coli with crRNA and purified as one complex

stoichiometry N: 6
Substance: Cas7 of the type I-F Cas8-HNH system from Selenomonas sp. isolate RGIG9219 (natural protein)

Reference: article PMC11480323
